Assay results reported in paper PMC6380570.

Experiments:
[1] = target: S100A1 protein (1-93 amino acids)
[2] = target: S100A1 protein (1-93 amino acids); assay: other fluorescence titration; tryptophan fluorescence of S100A1 (3.50 uM; excitation 295 nm, emission 344 nm); S100A4 added from 0 to 10.50 uM in steps of about 0.70 uM; 0.1 mM EDTA, 8 mM NaCl, 0.34 mM NaN3, 6 mM CaCl2, 16 mM Tris, pH 6.0; linear (double-reciprocal) fit

“S100A4 (Mts1) protein (from UniProt P26447 4-101) (natural protein)” was tested, and the WST-1 proliferation assay of SW480 cells (which contain RAGE) treated with the S100A4-S100A1 complex (100 nM), against S100A1 alone; pair said to be blocked: S100A1 and the RAGE V domain [1] was 1.38 fold and the Kd [2] was 6.2 µM.
